Laboratory results reported in paper PMC9352680, “A comprehensive thermodynamic model for RNA binding by the Saccharomyces cerevisiae Pumilio protein PUF4”.

T1: PUF4 RNA-binding domain (Saccharomyces cerevisiae, UniProt P25339 537-888)
T1 sequence: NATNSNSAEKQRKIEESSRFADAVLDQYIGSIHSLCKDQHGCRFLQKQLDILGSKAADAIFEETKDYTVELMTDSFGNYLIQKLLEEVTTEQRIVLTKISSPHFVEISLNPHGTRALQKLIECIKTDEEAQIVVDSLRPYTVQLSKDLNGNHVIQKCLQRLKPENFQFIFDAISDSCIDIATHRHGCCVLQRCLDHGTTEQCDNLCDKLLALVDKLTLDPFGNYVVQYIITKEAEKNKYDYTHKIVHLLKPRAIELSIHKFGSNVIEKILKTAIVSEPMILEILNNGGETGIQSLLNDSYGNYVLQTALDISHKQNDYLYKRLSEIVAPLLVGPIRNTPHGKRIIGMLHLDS


Target: T1, PUF4 RNA-binding domain
Assay: Mg; RNA-MaP; 20 mM Na-HEPES pH 7.4, 30 mM KOAc, 0.75 mM MgCl2, 0.1% Tween-20, 5% glycerol, 0.1 mg/mL BSA, 2 mM DTT; 25 C; 0.0125-409.6 nM protein
Conditions: tags: N-His6-TEV cleaved; C-SNAP kept, Cy3B-labelled; label: tethered on chip by stalled RNA polymerase

| Binder | Kd [nM] |
| --- | --- |
| UCUCUUCUUGUAUAUUAGCUCUCUU (ssRNA) [Id_ii_S1_P4E.2_K4.1_C4.2_H4.1_A4.1_F4.1_T4.2_[T11C]] | 0.287 |
| UCUCUUUGUCGAUUAUCUCUU (ssRNA) [Ib_S1_P4E.1_K4.1_C4.1_H4.1_[A4C]_A4.1_[T5G]_F4.1_T4.1] | 336 |
| UCUCUUACUGUAUAUUAACUCUCUU (ssRNA) [Id_ii_S1_P4E.2_K4.1_C4.2_[C-2A]_[T-1C]_H4.1_A4.1_F4.1_T4.2_[G10A]_[T11C]] | 1.47 |
| UCUCUUCAUGUAUAUUAAGUCUCUU (ssRNA) [Id_ii_S1_P4E.2_K4.1_C4.2_[T-1A]_H4.1_A4.1_F4.1_T4.2_[G10A]_[T11G]] | 2.41 |
| UCUCUUCAUGUAUAUUACUUCUCUU (ssRNA) [Id_ii_S1_P4E.2_K4.1_C4.2_[T-1A]_H4.1_A4.1_F4.1_T4.2_[G10C]] | 1.07 |
| UCUCUUCUUGUAUAUUAACUCUCUU (ssRNA) [Id_ii_S1_P4E.2_K4.1_C4.2_H4.1_A4.1_F4.1_T4.2_[G10A]_[T11C]] | 0.862 |
| UCUCUUCCUGUAUAUUAAGUCUCUU (ssRNA) [Id_ii_S1_P4E.2_K4.1_C4.2_[T-1C]_H4.1_A4.1_F4.1_T4.2_[G10A]_[T11G]] | 1.9 |
| UCUCUUCCUGUAUAUUAGUUCUCUU (ssRNA) [Id_ii_S1_P4E.2_K4.1_C4.2_[T-1C]_H4.1_A4.1_F4.1_T4.2] | 0.262 |
| UCUCUUAUUGUAUAUUAGUUCUCUU (ssRNA) [Id_ii_S1_P4E.2_K4.1_C4.2_[C-2A]_H4.1_A4.1_F4.1_T4.2] | 0.431 |
| UCUCUUCAUGUAUAUUAUCUCUCUU (ssRNA) [Id_ii_S1_P4E.2_K4.1_C4.2_[T-1A]_H4.1_A4.1_F4.1_T4.2_[G10T]_[T11C]] | 0.967 |
| UCUCUUCAUGUAUAUUAGGUCUCUU (ssRNA) [Id_ii_S1_P4E.2_K4.1_C4.2_[T-1A]_H4.1_A4.1_F4.1_T4.2_[T11G]] | 1.02 |
| UCUCUUCUUGUAUAUUACUUCUCUU (ssRNA) [Id_ii_S1_P4E.2_K4.1_C4.2_H4.1_A4.1_F4.1_T4.2_[G10C]] | 0.702 |
| UCUCUUCAUGUAUAUUAAUUCUCUU (ssRNA) [Id_ii_S1_P4E.2_K4.1_C4.2_[T-1A]_H4.1_A4.1_F4.1_T4.2_[G10A]] | 1.1 |
| UCUCUUUGCAUUUUAUCUCUU (ssRNA) [Ib_S1_P4E.1_K4.1_C4.1_H4.1_[T3C]_A4.1_[A6T]_F4.1_T4.1] | 1640 |
| UCUCUUAUUGUAUAUUAUCUCUCUU (ssRNA) [Id_ii_S1_P4E.2_K4.1_C4.2_[C-2A]_H4.1_A4.1_F4.1_T4.2_[G10T]_[T11C]] | 0.846 |
| UCUCUUAUUGUAUAUUAAUUCUCUU (ssRNA) [Id_ii_S1_P4E.2_K4.1_C4.2_[C-2A]_H4.1_A4.1_F4.1_T4.2_[G10A]] | 1.16 |
| UCUCUUCAUGUAUAUUAUUUCUCUU (ssRNA) [Id_ii_S1_P4E.2_K4.1_C4.2_[T-1A]_H4.1_A4.1_F4.1_T4.2_[G10T]] | 0.915 |
| UCUCUUCGUGUAUAUUAUUUCUCUU (ssRNA) [Id_ii_S1_P4E.2_K4.1_C4.2_[T-1G]_H4.1_A4.1_F4.1_T4.2_[G10T]] | 1.19 |
| UCUCUUCAUGUAUAUUAGCUCUCUU (ssRNA) [Id_ii_S1_P4E.2_K4.1_C4.2_[T-1A]_H4.1_A4.1_F4.1_T4.2_[T11C]] | 0.425 |
| UCUCUUCAUGUAUAUUACCUCUCUU (ssRNA) [Id_ii_S1_P4E.2_K4.1_C4.2_[T-1A]_H4.1_A4.1_F4.1_T4.2_[G10C]_[T11C]] | 0.916 |
| UCUCUUACUGUAUAUUAUAUCUCUU (ssRNA) [Id_ii_S1_P4E.2_K4.1_C4.2_[C-2A]_[T-1C]_H4.1_A4.1_F4.1_T4.2_[G10T]_[T11A]] | 1.83 |

| Binder | Kd [nM] |
| --- | --- |
| UCUCUUAUUGUAUAUUAUGUCUCUU (ssRNA) [Id_ii_S1_P4E.2_K4.1_C4.2_[C-2A]_H4.1_A4.1_F4.1_T4.2_[G10T]_[T11G]] | 1.27 |
| UCUCUUAUUGUAUAUUAUAUCUCUU (ssRNA) [Id_ii_S1_P4E.2_K4.1_C4.2_[C-2A]_H4.1_A4.1_F4.1_T4.2_[G10T]_[T11A]] | 1.12 |
| UCUCUUAUUGUAUAUUAAAUCUCUU (ssRNA) [Id_ii_S1_P4E.2_K4.1_C4.2_[C-2A]_H4.1_A4.1_F4.1_T4.2_[G10A]_[T11A]] | 0.655 |
| UCUCUUAAUGUAUAUUACCUCUCUU (ssRNA) [Id_ii_S1_P4E.2_K4.1_C4.2_[C-2A]_[T-1A]_H4.1_A4.1_F4.1_T4.2_[G10C]_[T11C]] | 2.09 |
| UCUCUUUGUCCAUUAUCUCUU (ssRNA) [Ib_S1_P4E.1_K4.1_C4.1_H4.1_[A4C]_A4.1_[T5C]_F4.1_T4.1] | 20.5 |
| UCUCUUCCUGUAUAUUAACUCUCUU (ssRNA) [Id_ii_S1_P4E.2_K4.1_C4.2_[T-1C]_H4.1_A4.1_F4.1_T4.2_[G10A]_[T11C]] | 0.991 |
| UCUCUUCGUGUAUAUUAGUUCUCUU (ssRNA) [Id_ii_S1_P4E.2_K4.1_C4.2_[T-1G]_H4.1_A4.1_F4.1_T4.2] | 0.399 |
| UCUCUUGCUAUAUAUUACGUCUCUU (ssRNA) [Id_ii_S1_P4E.3_K4.2_C4.2_[C-2G]_[T-1C]_H4.2_A4.1_F4.1_T4.2_[G10C]_[T11G]] | 56.3 |
| UCUCUUCGUGUAUAUUAGGUCUCUU (ssRNA) [Id_ii_S1_P4E.2_K4.1_C4.2_[T-1G]_H4.1_A4.1_F4.1_T4.2_[T11G]] | 0.943 |
| UCUCUUAAUGUAUAUUAUUUCUCUU (ssRNA) [Id_ii_S1_P4E.2_K4.1_C4.2_[C-2A]_[T-1A]_H4.1_A4.1_F4.1_T4.2_[G10T]] | 1.61 |
| UCUCUUAAUGUAUAUUACUUCUCUU (ssRNA) [Id_ii_S1_P4E.2_K4.1_C4.2_[C-2A]_[T-1A]_H4.1_A4.1_F4.1_T4.2_[G10C]] | 1.68 |
| UCUCUUCAUGUAUAUUAGUUCUCUU (ssRNA) [Id_ii_S1_P4E.2_K4.1_C4.2_[T-1A]_H4.1_A4.1_F4.1_T4.2] | 0.326 |
| UCUCUUCCUGUAUAUUAAAUCUCUU (ssRNA) [Id_ii_S1_P4E.2_K4.1_C4.2_[T-1C]_H4.1_A4.1_F4.1_T4.2_[G10A]_[T11A]] | 1.26 |
| UCUCUUUGCAUACUAUCUCUU (ssRNA) [Ib_S1_P4E.1_K4.1_C4.1_H4.1_[T3C]_A4.1_[T7C]_F4.1_T4.1] | 117 |
| UCUCUUCUUGUAUAUUAGUUCUCUU (ssRNA) [If_S1_P4E.2_K4.1_C4.2_H4.1_A4.1_F4.1_T4.2] | 0.286 |
| UCUCUUAUUGUAUAUUAACUCUCUU (ssRNA) [Id_ii_S1_P4E.2_K4.1_C4.2_[C-2A]_H4.1_A4.1_F4.1_T4.2_[G10A]_[T11C]] | 1.01 |
| UCUCUUAUUGUAUAUUAGCUCUCUU (ssRNA) [Id_ii_S1_P4E.2_K4.1_C4.2_[C-2A]_H4.1_A4.1_F4.1_T4.2_[T11C]] | 0.714 |
| UCUCUUCCUGUAUAUUAUCUCUCUU (ssRNA) [Id_ii_S1_P4E.2_K4.1_C4.2_[T-1C]_H4.1_A4.1_F4.1_T4.2_[G10T]_[T11C]] | 0.601 |
| UCUCUUUGCAUCUUAUCUCUU (ssRNA) [Ib_S1_P4E.1_K4.1_C4.1_H4.1_[T3C]_A4.1_[A6C]_F4.1_T4.1] | > 2300 |
| UCUCUUCUUGUAUAUUAUGUCUCUU (ssRNA) [Id_ii_S1_P4E.2_K4.1_C4.2_H4.1_A4.1_F4.1_T4.2_[G10T]_[T11G]] | 0.808 |
| UCUCUUCCUGUAUAUUAAUUCUCUU (ssRNA) [Id_ii_S1_P4E.2_K4.1_C4.2_[T-1C]_H4.1_A4.1_F4.1_T4.2_[G10A]] | 0.693 |

| Binder | Kd [nM] |
| --- | --- |
| UCUCUUCCUGUAUAUUACUUCUCUU (ssRNA) [Id_ii_S1_P4E.2_K4.1_C4.2_[T-1C]_H4.1_A4.1_F4.1_T4.2_[G10C]] | 0.91 |
| UCUCUUACUGUAUAUUAUUUCUCUU (ssRNA) [Id_ii_S1_P4E.2_K4.1_C4.2_[C-2A]_[T-1C]_H4.1_A4.1_F4.1_T4.2_[G10T]] | 1.39 |
| UCUCUUCGUGUAUAUUAUCUCUCUU (ssRNA) [Id_ii_S1_P4E.2_K4.1_C4.2_[T-1G]_H4.1_A4.1_F4.1_T4.2_[G10T]_[T11C]] | 0.874 |
| UCUCUUCCUGUAUAUUAUAUCUCUU (ssRNA) [Id_ii_S1_P4E.2_K4.1_C4.2_[T-1C]_H4.1_A4.1_F4.1_T4.2_[G10T]_[T11A]] | 0.96 |
| UCUCUUUGCAUAGUAUCUCUU (ssRNA) [Ib_S1_P4E.1_K4.1_C4.1_H4.1_[T3C]_A4.1_[T7G]_F4.1_T4.1] | 647 |
| UCUCUUCUUGUAUAUUAUUUCUCUU (ssRNA) [Id_ii_S1_P4E.2_K4.1_C4.2_H4.1_A4.1_F4.1_T4.2_[G10T]] | 0.541 |
| UCUCUUCGUGUAUAUUAAUUCUCUU (ssRNA) [Id_ii_S1_P4E.2_K4.1_C4.2_[T-1G]_H4.1_A4.1_F4.1_T4.2_[G10A]] | 1.2 |
| UCUCUUCCUGUAUAUUAUGUCUCUU (ssRNA) [Id_ii_S1_P4E.2_K4.1_C4.2_[T-1C]_H4.1_A4.1_F4.1_T4.2_[G10T]_[T11G]] | 1.01 |
| UCUCUUAAUGUAUAUUAUCUCUCUU (ssRNA) [Id_ii_S1_P4E.2_K4.1_C4.2_[C-2A]_[T-1A]_H4.1_A4.1_F4.1_T4.2_[G10T]_[T11C]] | 2.38 |
| UCUCUUCUUGUAUAUUAUAUCUCUU (ssRNA) [Ie_S1_P3E.2_K3.1_C3.2_H3.1_A3.1_[+6T]_F3.1_T3.2] | 0.724 |
| UCUCUUCCUGUAUAUUAUUUCUCUU (ssRNA) [Id_ii_S1_P4E.2_K4.1_C4.2_[T-1C]_H4.1_A4.1_F4.1_T4.2_[G10T]] | 0.724 |
| UCUCUUCUUGUAUAUUACCUCUCUU (ssRNA) [Id_ii_S1_P4E.2_K4.1_C4.2_H4.1_A4.1_F4.1_T4.2_[G10C]_[T11C]] | 0.733 |
| UCUCUUAUUGUAUAUUACUUCUCUU (ssRNA) [Id_ii_S1_P4E.2_K4.1_C4.2_[C-2A]_H4.1_A4.1_F4.1_T4.2_[G10C]] | 1.16 |
| UCUCUUAUUGUAUAUUAUUUCUCUU (ssRNA) [Id_ii_S1_P4E.2_K4.1_C4.2_[C-2A]_H4.1_A4.1_F4.1_T4.2_[G10T]] | 0.453 |
| UCUCUUAUUGUAUAUUACCUCUCUU (ssRNA) [Id_ii_S1_P4E.2_K4.1_C4.2_[C-2A]_H4.1_A4.1_F4.1_T4.2_[G10C]_[T11C]] | 0.788 |
| UCUCUUCUUGUAUAUUAAUUCUCUU (ssRNA) [Id_ii_S1_P4E.2_K4.1_C4.2_H4.1_A4.1_F4.1_T4.2_[G10A]] | 0.76 |
| UCUCUUCAUGUAUAUUAAAUCUCUU (ssRNA) [Id_ii_S1_P4E.2_K4.1_C4.2_[T-1A]_H4.1_A4.1_F4.1_T4.2_[G10A]_[T11A]] | 1.57 |
| UCUCUUCUUGUAUAUUAAAUCUCUU (ssRNA) [Id_ii_S1_P4E.2_K4.1_C4.2_H4.1_A4.1_F4.1_T4.2_[G10A]_[T11A]] | 0.971 |
| UCUCUUCAUGUAUAUUAACUCUCUU (ssRNA) [Id_ii_S1_P4E.2_K4.1_C4.2_[T-1A]_H4.1_A4.1_F4.1_T4.2_[G10A]_[T11C]] | 1.15 |
| UCUCUUCGUGUAUAUUAAGUCUCUU (ssRNA) [Id_ii_S1_P4E.2_K4.1_C4.2_[T-1G]_H4.1_A4.1_F4.1_T4.2_[G10A]_[T11G]] | 3.06 |
